Laboratory results from the supplement of paper PMC6757056.
± gives the standard deviation of the averaged measurements.

B1: library; a variant is named by its letters at N, in order (parent)
chain: GCUGUCACCGGUGCUUGGUACGUUAUAUUCAGCCGGUCUGAUGAGUCUNNNNNNAGACGAAACAGC

Key:
[1] = variants of: B1; experiment: normalized RNA/DNA level without ligand (relative to sTRSVctl = 100) (log10 (% of sTRSVctl)); HEK293T overexpressing SLC46A1; higher = less ribozyme self-cleavage, higher mRNA level; conditions: without (6R,S)-folinic acid; ligand present: no
Procedure, shortened: (§1)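 RNA level was computed as RNA reads over DNA reads divided by a spiked-in non-cleaving sequence or by the top sequences, then scaled and log-transformed. Scaling was ×100 with log10, the top group was 25 sequences, and the threshold was ≥100 DNA reads. The reads came from HEK293T cells transfected at 4 µg per 6-well well with ribozyme switch library plasmids (mCherry, or eGFP in some ligand experiments). Total RNA was extracted with EDTA 72 h after transfection, with any ligand added 1 h before it.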

[2] = variants of: B1; experiment: normalized RNA/DNA level with ligand (relative to sTRSVctl = 100) (log10 (% of sTRSVctl)); HEK293T overexpressing SLC46A1; ligand concentration (+) RNA-Seq: 6 mM; higher = less ribozyme self-cleavage, higher mRNA level; conditions: with (6R,S)-folinic acid; ligand present: yes
Procedure, shortened: as §1

Variant	normalized RNA/DNA level without ligand (log10) [1]	normalized RNA/DNA level with ligand (log10) [2]
GCUGUCACCGGUGCUUGGUACGUUAUAUUCAGCCGGUCUGAUGAGUCUGCCCGCAGACGAAACAGC [GCCCGC]	2.0838 ± 0.0006	2.08 ± 0.03
GCUGUCACCGGUGCUUGGUACGUUAUAUUCAGCCGGUCUGAUGAGUCUUCCCGCAGACGAAACAGC [UCCCGC]	2.013 ± 0.015	1.99 ± 0.053
GCUGUCACCGGUGCUUGGUACGUUAUAUUCAGCCGGUCUGAUGAGUCUACCCGCAGACGAAACAGC [ACCCGC]	2.038 ± 0.02	2.03 ± 0.041
GCUGUCACCGGUGCUUGGUACGUUAUAUUCAGCCGGUCUGAUGAGUCUCCCCGGAGACGAAACAGC [CCCCGG]	2.083 ± 0.0038	2.06 ± 0.022
GCUGUCACCGGUGCUUGGUACGUUAUAUUCAGCCGGUCUGAUGAGUCUGCCCGGAGACGAAACAGC [GCCCGG]	2.089 ± 0.005	2.02 ± 0.035
GCUGUCACCGGUGCUUGGUACGUUAUAUUCAGCCGGUCUGAUGAGUCUUCCCGGAGACGAAACAGC [UCCCGG]	2.05 ± 0.018	2.05 ± 0.059
GCUGUCACCGGUGCUUGGUACGUUAUAUUCAGCCGGUCUGAUGAGUCUACCCGGAGACGAAACAGC [ACCCGG]	2.01 ± 0.022	2.04 ± 0.041
GCUGUCACCGGUGCUUGGUACGUUAUAUUCAGCCGGUCUGAUGAGUCUCCCCGUAGACGAAACAGC [CCCCGU]	2.05 ± 0.028	2.047 ± 0.01
GCUGUCACCGGUGCUUGGUACGUUAUAUUCAGCCGGUCUGAUGAGUCUGCCCGUAGACGAAACAGC [GCCCGU]	2.0126 ± 0.0014	2.007 ± 0.0028
GCUGUCACCGGUGCUUGGUACGUUAUAUUCAGCCGGUCUGAUGAGUCUUCCCGUAGACGAAACAGC [UCCCGU]	2.041 ± 0.013	2.04 ± 0.044
GCUGUCACCGGUGCUUGGUACGUUAUAUUCAGCCGGUCUGAUGAGUCUACCCGUAGACGAAACAGC [ACCCGU]	2.0423 ± 0.0012	2.02 ± 0.0044
GCUGUCACCGGUGCUUGGUACGUUAUAUUCAGCCGGUCUGAUGAGUCUGCCCUAAGACGAAACAGC [GCCCUA]	2.034 ± 0.015	2.05 ± 0.032
GCUGUCACCGGUGCUUGGUACGUUAUAUUCAGCCGGUCUGAUGAGUCUUCCCUAAGACGAAACAGC [UCCCUA]	2.007 ± 0.0055	2 ± 0.024
GCUGUCACCGGUGCUUGGUACGUUAUAUUCAGCCGGUCUGAUGAGUCUACCCUAAGACGAAACAGC [ACCCUA]	2.018 ± 0.015	2.03 ± 0.022
GCUGUCACCGGUGCUUGGUACGUUAUAUUCAGCCGGUCUGAUGAGUCUCCCCUCAGACGAAACAGC [CCCCUC]	2.05 ± 0.023	1.99 ± 0.038
GCUGUCACCGGUGCUUGGUACGUUAUAUUCAGCCGGUCUGAUGAGUCUGCCCUCAGACGAAACAGC [GCCCUC]	2.047 ± 0.015	2.03 ± 0.065
GCUGUCACCGGUGCUUGGUACGUUAUAUUCAGCCGGUCUGAUGAGUCUUCCCUCAGACGAAACAGC [UCCCUC]	2.07 ± 0.041	2.053 ± 0.0051
GCUGUCACCGGUGCUUGGUACGUUAUAUUCAGCCGGUCUGAUGAGUCUACCCUCAGACGAAACAGC [ACCCUC]	2.03 ± 0.031	2.02 ± 0.032
GCUGUCACCGGUGCUUGGUACGUUAUAUUCAGCCGGUCUGAUGAGUCUGCCCUGAGACGAAACAGC [GCCCUG]	2.05 ± 0.023	2.04 ± 0.039
GCUGUCACCGGUGCUUGGUACGUUAUAUUCAGCCGGUCUGAUGAGUCUUCCCUGAGACGAAACAGC [UCCCUG]	1.919 ± 0.013	2.03 ± 0.039
